This assay addresses T1, mature human SMAC^56-C (human, UniProt Q9NR28 56-239).
T1 construct: SMAC (DIABLO), mature form starting from Ala56 to the C terminus; expressed as a SUMO fusion in pRSF-DUET1 so that the N terminus starts from Ala56; also called SMAC^56-C,Strep-II; mature SMAC; source: E. coli BL21 (DE3) Rosetta 2 pLysS, purified (His-TRAP, Superdex 75); not shown: SUMO, N-terminal, cleaved
T1 sequence (looked up): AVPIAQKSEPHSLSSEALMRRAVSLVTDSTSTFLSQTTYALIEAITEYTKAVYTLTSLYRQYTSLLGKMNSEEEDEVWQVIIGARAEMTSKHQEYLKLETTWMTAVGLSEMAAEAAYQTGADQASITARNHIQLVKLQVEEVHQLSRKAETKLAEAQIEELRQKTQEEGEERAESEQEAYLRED
As to the kind of experiment: SEC; gel filtration elution profiles of XIAP-RNF38^WT, SMAC^56-C and the E3/SMAC mixture. The conditions noted are these: both partners purified. In general terms: Size exclusion chromatography separates by hydrodynamic size, large species first.

Results on one molecule are retold here after PMC12326332, “Tuning ubiquitin transfer by RING E3 ubiquitin ligases through the linchpin residue” (Life Science Alliance, 2025).

B1: XIAP^145-430-RNF38^389-C (other, UniProt P98170 145-430, looked up)
chain: QVVDISDTIYPRNPAMYSEEARLKSFQNWPDYAHLTPRELASAGLYYTGIGDQVQCFCCGGKLKNWEPCDRAWSEHRRHFPNCFFVLGRNLNIRSESDAVSSDRNFPNSTNLPRNPSMADYEARIFTFGTWIYSVNKEQLARAGFYALGEGDKVKCFHCGGGLTDWKPSEDPWEQHAKWYPGCKYLLEQKGQEYINNIHLTHSLEECLVRTTEKTPSLTRRIDDTIFQNPMVQEAIRMGFSFKDIKKIMEEKIQISGSNYKSLEVLVADLVNAQKDSMQDESSQTSTKADIEQLPSYRFNPNNHQSEQTLCVVCMCDFESRQLLRVLPCNHEFHAKCVDKWLKANRTCPICRADASEVHRDSE
notes: XIAP (BIRC4) residues 145-430 with the substrate-recruiting BIR2 and BIR3 domains; RNF38 RING domain, residue 389 to the C terminus; no linker between the two parts is told; also called XIAP-RNF38; XIAP-RNF38^WT; source: E. coli BL21 (DE3) Rosetta 2 pLysS, purified
Regarding B1, the binding result is recorded as “binds”.
